Here are results for 2 molecules from US20230383007A1 (BIOSION, published 2023).

Assay [1] concerns the target T1, human TROP2-his protein (human, UniProt P09758 27-274).
T1 construct: also called biotin labeled human TROP2-his protein
T1 sequence: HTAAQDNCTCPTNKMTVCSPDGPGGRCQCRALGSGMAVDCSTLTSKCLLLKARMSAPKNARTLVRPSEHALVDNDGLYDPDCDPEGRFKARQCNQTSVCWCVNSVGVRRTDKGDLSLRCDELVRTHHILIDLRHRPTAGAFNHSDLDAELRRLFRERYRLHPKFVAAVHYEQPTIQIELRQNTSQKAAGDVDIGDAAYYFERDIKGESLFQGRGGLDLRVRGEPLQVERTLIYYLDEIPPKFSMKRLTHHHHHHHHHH
The assay can be described thus: competitive ELISA: soluble benchmark pre-mixed with biotin labeled human TROP2-his, added to plate coated with the benchmark (self-competition); unit taken from the x axis (nM). (In general: In an ELISA, binding on a coated surface is turned into a signal by an enzyme label.)

In assay [2] the target is T1, human TROP2-his protein. The assay can be described thus: indirect ELISA, plate coated with 1 ug/ml TROP2-his; bacterial culture supernatant. How it is done: ELISA plates were coated with 100 μl 1 μg/ml human TROP2-his protein (in house made with SEQ ID NO: 16), or 1 μg/ml cynomolgus TROP2-his protein (in house made with SEQ ID NO: 19) in carbonate/bicarbonate buffer (pH 9.6) overnight at 4° C., washed once with wash buffer (PBS+0.05% v/v Tween-20, PBST) and then blocked with 200 μl/well blocking buffer (5% w/v non-fatty milk in PBST) for 2 hours at 37° C. Plates were washed 4 times, and respectively incubated with 100 μl bacterial culture supernatant, and sacituzumab (used as the benchmark, also referred to as BM or BM1 hereinafter, in house made with heavy chain and light chain amino acid sequences set forth in SEQ ID NOs: 17 and 18) in 5% w/v non-fatty milk in PBST at 200 ng/ml, for 40 minutes at 37° C. The plates were washed 4 times, and incubated with THE™ HA Tag Antibody [HRP], mAb, Mouse Antibody (1:5000 dilution in PBST, GenScript, Cat #A01296, 100 μl/well, for plates with bacterial culture supernatans of the disclosure) or Peroxidase AffiniPure F(ab′)₂ Fragment Goat Anti-Human IgG, Fey fragment specific (Jackson Immunoresearch, Cat #109-036-098, for plates with the benchmark), for 40 minutes at 37° C. After a final wash, plates were incubated with 100 μl/well ELISA substrate TMB (Innoreagents, Cat #TMB-S-002) at room temperature. The reaction was stopped in 3-10 minutes with 50 μl/well 1M H₂SO₄, and the absorbance of each well was read on a microplate reader using dual wavelength mode with 450 nm for TMB and 630 nm as the reference wavelength. When the OD of a sample well was 2 times higher than the OD of the blank well, the sample can be determined as positive.

The target of assay [3] is T1, human TROP2-his protein. The assay can be described thus: SPR Biacore T200; antibody captured on anti-human IgG chip, 40 nM human TROP2-his as analyte. The text has this: The purified anti-TROP2 mouse monoclonal antibodies (mAbs) were characterized for binding affinity and binding kinetics by Biacore T200 system (GE healthcare, Pittsburgh, PA, USA). Briefly, goat anti-human IgG (GE healthcare, Cat #BR100839, Human Antibody Capture Kit) was covalently linked to a CM5 chip (carboxy methyl dextran coated chip from GE healthcare #BR100530) via primary amines, using a standard amine coupling kit (GE healthcare, Pittsburgh, PA, USA) provided by Biacore. Un-reacted moieties on the chip (biosensor) surface were blocked with ethanolamine. The anti-TROP2 antibodies of the disclosure and the benchmark at the concentration of 2 μg/ml were respectively flowed onto the chip at a flow rate of 10 μL/min. Then, serially diluted human TROP2-his protein (prepared in-house with SEQ ID NO: 16), or cynomolgus TROP2-his protein (prepared in-house with SEQ ID NO: 19), 2-fold dilution in HBS-EP⁺ buffer (provided by Biacore) starting at 160 nM, were flowed onto the chip at a flow rate of 30 μL/min. The antigen-antibody association kinetics was followed for 2 minutes and the dissociation kinetics was followed for 10 minutes. The association and dissociation curves were fit to a 1:1 Langmuir binding model using BIAcore evaluation software.
For the BIAcore test, cell supernatants containing humanized 01-9F-CDR-V11 antibodies were respectively flowed onto the chip at a flow rate of 10 μL/min, and 40 nM human TROP2-his protein (prepared in-house with SEQ ID NO: 16) in HBS-EP⁺ buffer (provided by Biacore) were flowed onto the chip at a flow rate of 30 μL/min.

For assay [4], the target named is T1, human TROP2-his protein. The assay can be described thus: competitive ELISA: antibody pre-mixed with biotin labeled human TROP2-his, added to plate coated with the benchmark (sacituzumab analog); unit taken from the x axis (ng/mL). How it is done: The anti-TROP2 antibodies were tested for their epitope binding in a competitive ELISA assay. Briefly, 100 μl of the benchmark at 1 μg/mL in PBS was coated on 96-well micro plates for 2 hours at 37° C. ELISA plates were washed once with wash buffer (PBS+0.05% v/v Tween-20, PBST) and then blocked with 200 μl blocking buffer (5% w/v non-fatty milk in PBST) for 2 hours at 37° C. While blocking, the anti-TROP2 antibodies of the disclosure or controls were diluted with biotin labeled human TROP2-his protein (SEQ ID NO: 16, 34 ng/mL in 2.5% w/v non-fatty milk in PBST), starting at 80 nM with a 5-fold serial dilution, and incubated at room temperature for 40 minutes. After plate washing 4 times, the antibody/TROP2-his protein mixtures were added to benchmark coated plates, 100 μl per well. After incubation at 37° C. for 40 minutes, plates were washed 4 times again using wash buffer. Then the plates were added and incubated with 100 μl Peroxidase Streptavidin (1:10000 dilution in PBST buffer, Jackson Immunoresearch, Cat #016-030-084) for 40 minutes at 37° C. Plates were washed again using wash buffer. […] The absorbance of each well was read on a microplate reader using dual wavelength mode with 450 nm for TMB and 630 nm as the reference wavelength, and the OD (450-630) values were plotted against antibody concentration. Data was analyzed using Graphpad Prism software and IC₅₀ values were reported.

B1: sacituzumab (benchmark, an analog of sacituzumab, in house made) (antibody, human IgG1, kappa, V domains shown)
VH: SVQLQQSGSELKKPGASVKVSCKASGYTFTNYGMNWVKQAPGQGLKWMGWINTYTGEPTYTDDFKGRFAFSLDTSVSTAYLQISSLKADDTAVYFCARGGFGSSYWYFDVWGQGSLVTVSS
VL: DIQLTQSPSSLSASVGDRVSITCKASQDVSIAVAWYQQKPGKAPKLLIYSASYRYTGVPDRFSGSGSGTDFTLTISSLQPEDFAVYYCQQHYITPLTFGAGTKVEIKR
notes: also called BM; BM1
Broadly, the IC50 is the concentration at which inhibition is half-maximal. Low values mean higher potency, high ones lower potency. In the assay with human TROP2-his protein [1], B1 had an IC50 of 0.563 nM.

B2: single domain antibody 01-9F (VHH)
VHH: QVQLVESGGGSVQAGGSLRLSCVVSGLPYERYCVAWFRQGPGKEREGVARILSDGTTSYSDSVKGRFTISKDNAKNTLYLQMNSLKSEDTATYYCAAEAFRPFTPSDGDCTTVLGIDYWGKGTPVTVSS
Usually Kd stands for the free concentration of one partner at which half of the binding sites on the other are occupied at equilibrium, for simple one-to-one binding. Read a low Kd as a tighter complex. The term koff denotes the first-order rate constant of dissociation. The low end stands for a long-lived complex, the high end for a short-lived complex. The term kon denotes a measure of how fast the partners come together. A higher kon goes with faster complex formation. On to B2, for which the “Indirect ELISA OD (450-630)” value with human TROP2-his protein [2] was 0.97 OD (450-630). Also, in the assay with human TROP2-his protein [3], the Kd came out at 0.188 nM, the koff is 0.000224 s⁻¹ and the kon was found to be 1.19e+06 M⁻¹ s⁻¹. This molecule showed an IC50 with human TROP2-his protein [4] of 0.0274 µg/mL.
